Reference: publication PMC11350156

How the values were obtained:
[1] = molecular target: T1, 6xHis-IE2(87-579) (Human cytomegalovirus, UniProt Q6SWP7 87-579); assay: pull-down immunoblot
T1 sequence: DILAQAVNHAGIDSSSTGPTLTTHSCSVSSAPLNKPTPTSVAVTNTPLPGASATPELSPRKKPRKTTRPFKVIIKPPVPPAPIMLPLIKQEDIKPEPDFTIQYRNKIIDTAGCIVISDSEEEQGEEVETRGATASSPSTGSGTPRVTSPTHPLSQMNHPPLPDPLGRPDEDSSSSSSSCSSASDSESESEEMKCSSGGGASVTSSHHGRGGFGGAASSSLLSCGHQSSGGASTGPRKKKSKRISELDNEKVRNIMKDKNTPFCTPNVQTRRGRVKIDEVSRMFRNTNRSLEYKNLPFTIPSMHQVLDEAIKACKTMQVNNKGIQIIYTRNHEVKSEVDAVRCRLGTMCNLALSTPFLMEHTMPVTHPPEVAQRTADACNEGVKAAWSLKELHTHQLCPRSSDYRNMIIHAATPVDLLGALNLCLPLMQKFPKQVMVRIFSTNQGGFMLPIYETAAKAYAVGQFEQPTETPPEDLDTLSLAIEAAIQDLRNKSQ

[2] = molecular target: T2, 6xHis-UL44(1-290) (Human cytomegalovirus, UniProt P16790 1-290); assay: pull-down immunoblot
T2 sequence (P16790 1-290): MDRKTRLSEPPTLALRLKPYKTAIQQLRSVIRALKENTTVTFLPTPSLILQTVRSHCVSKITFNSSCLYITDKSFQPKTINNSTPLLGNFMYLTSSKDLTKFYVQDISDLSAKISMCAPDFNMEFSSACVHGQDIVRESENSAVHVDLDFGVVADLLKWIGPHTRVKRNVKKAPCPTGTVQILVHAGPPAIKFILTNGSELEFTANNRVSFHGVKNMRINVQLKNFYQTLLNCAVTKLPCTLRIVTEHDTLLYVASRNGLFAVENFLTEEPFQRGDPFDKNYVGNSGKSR

[3] = molecular target: T3, UL84-6xHis (Human cytomegalovirus, UniProt P16727 1-586); assay: pull-down immunoblot
T3 sequence: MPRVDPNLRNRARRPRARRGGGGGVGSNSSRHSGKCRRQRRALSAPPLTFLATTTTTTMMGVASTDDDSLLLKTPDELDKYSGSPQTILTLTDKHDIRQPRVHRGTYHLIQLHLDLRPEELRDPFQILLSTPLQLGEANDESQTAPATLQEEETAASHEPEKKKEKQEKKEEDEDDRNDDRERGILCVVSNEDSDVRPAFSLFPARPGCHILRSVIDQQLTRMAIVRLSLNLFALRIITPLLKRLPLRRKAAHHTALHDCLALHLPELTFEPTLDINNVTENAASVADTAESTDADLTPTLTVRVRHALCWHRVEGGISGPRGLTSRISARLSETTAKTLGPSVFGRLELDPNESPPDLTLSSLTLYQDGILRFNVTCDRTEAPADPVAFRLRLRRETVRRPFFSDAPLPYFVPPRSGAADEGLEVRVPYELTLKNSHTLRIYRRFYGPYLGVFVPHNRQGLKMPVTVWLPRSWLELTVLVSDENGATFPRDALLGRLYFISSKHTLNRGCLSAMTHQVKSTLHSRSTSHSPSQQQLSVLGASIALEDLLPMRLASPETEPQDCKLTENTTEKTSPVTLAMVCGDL

[4] = molecular target: T1, 6xHis-IE2(87-579); assay: ELISA
[5] = molecular target: T2, 6xHis-UL44(1-290); assay: ELISA
[6] = molecular target: T3, UL84-6xHis; assay: ELISA
[7] = molecular target: T1, 6xHis-IE2(87-579); assay: pull-down
[8] = molecular target: T2, 6xHis-UL44(1-290); assay: pull-down
[9] = molecular target: T3, UL84-6xHis; assay: pull-down

Q: Which results are given for AAGGGAAAGGGTGAGGGGGGGGGGTT (structured_DNA) [oriG4-1 L1]?
A: binding result [1]: binds; binding result [2]: binds; binding result [3]: binds

Q: For AAGGGGGGGGGTGAGGGGGGGGGGTT (structured_DNA) [oriG4-1], which Kd [4] is on record?
A: 123 nM

Q: What about the Kd [5] of the same binder?
A: 25.5 nM

Q: And the Kd [6]?
A: 14.2 nM

Q: Does AAGGAGAGAGGTGAGGAGGAAAGGTT (ssDNA) [oriG4-1m] bind [7]?
A: no binding

Q: Does AAGGAGAGAGGTGAGGAGGAAAGGTT (ssDNA) [oriG4-1m] bind [8]?
A: no binding

Q: Does AAGGAGAGAGGTGAGGAGGAAAGGTT (ssDNA) [oriG4-1m] bind [9]?
A: no binding
